The target in one series is SCO7468 (Streptomyces coelicolor, UniProt Q8CJJ9). In words: methanol denaturation and reverse-phase HPLC of co-purified flavin. It is filed as binding. As to conditions: tightly bound.
Substrate in series [1]: CC(C)=CCc1ccc2[nH]cc(C[C@H](N)C(=O)O)c2c1
In words: LC-MS/MS quantification of aldoxime product (5-DMAIAOx). The note with it: 1 mM NADPH, 20 μM FAD, 100 mM Tris-HCl pH 8.0, 30 °C. It is filed as biochemical, Streptomyces coelicolor.

Substrate in series [2]: N[C@@H](Cc1c[nH]c2ccccc12)C(=O)O
As to the kind of experiment: LC-MS/MS quantification of aldoxime product (IAOx). It is filed as biochemical, Streptomyces coelicolor. As to conditions: 1 mM NADPH, 20 μM FAD, 100 mM Tris-HCl pH 8.0, 30 °C.

Substrate in series [3]: CC(C)=CCOP(=O)(O)OP(=O)(O)O
As to the kind of experiment: purified protein. It is filed as biochemical, Streptomyces coelicolor. The note with it: L-tryptophan 1 mM fixed, 2 mM MgCl2, 100 mM Tris-HCl pH 8.0, 30 °C.

Substrate in series [4]: N[C@@H](Cc1c[nH]c2ccccc12)C(=O)O
As to the kind of experiment: purified protein. The note with it: DMAPP 1 mM fixed, 2 mM MgCl2, 100 mM Tris-HCl pH 8.0, 30 °C. It is filed as biochemical, Streptomyces coelicolor.

This is an account of results in PMC3617294, “Novel Tryptophan Metabolism by a Potential Gene Cluster That Is Widely Distributed among Actinomycetes” (The Journal of Biological Chemistry, 2013).

With `Cc1cc2nc3c(=O)[nH]c(=O)nc-3n(C[C@H](O)[C@H](O)[C@H](O)COP(=O)(O)OP(=O)(O)OC[C@H]3O[C@@H](n4cnc5c(N)ncnc54)[C@H](O)[C@@H]3O)c2cc1C` [FAD], the “methanol denaturation and reverse-phase HPLC of co-purified flavin” value at SCO7468 is given as “FAD existed in the recombinant SCO7468 protein as a tightly bound form”.

B1: SCO7468 (Streptomyces coelicolor A3(2)) (protein)
chain: MRVCVIGAGLSGLAMGHALKERGISFVCLEKAPDVGGIWRQPGAGERGPGYQSLHLNTARQLTGYADFPMPSDYPLYPRHDQVAAYLRSFAEWAGLLDHVELRTEVLSVRQDSDGSWTVVSRDADGAQSARRFEQVVVASGHHTDPALPDPLPAGADSFAGTILHSLDYRDGGDFAGRRVVVVGLGASAVDIAADLSRHAERTLLSVRRGLHIVPKQVFGMSLDEIAEAPWWNEMPFAERRRWVEQALLVARGRLSDYGLPEPDHPILSSATTLSDEILSRIRHGAVTPKPAIASFESDRVVFTDGSSEAADTVVYCTGFHMTFPFLPPGCPVAADGAVELYRRIVPADRPGLYFVGLVRPAGALTRLVEAQAQWVARLVDGAAALPGTEEMREEISTYLAGIVERYGRTRGASIQVDVSPYLAEFREPLPV
For the molecule B1, the Km was 0.57 ± 0.1 µM in series [1] and “(3.3 ± 0.7) ×10^3 μM” in series [2]. Also, the kcat result in series [1] was “(8.2 ± 0.7) ×10^−3 s^−1”; in series [2] it was “(5.2 ± 0.4) ×10^−3 s^−1”.

B2: SCO7467 (Streptomyces coelicolor A3(2)) (protein)
chain: MRAASTGADPQDASTLGSFTGGQLRRLGSVAGLSRADVETYAQVLTDALGPVAQRPLSLAPPTRTFLSDDHTPVEFSLSFRPGAAPAMRVLVEPGCGATSLADNGRAGLEAVRTMARRWHFTTDALDELLDLFLPPAPQGPLALWCALELRPGGVPGVKVYLNPAVGGEERSAATVREALRRLGHHQAFDSLPQGSGYPFLALDLGNWTEPRAKVYLRHDNLTAGRAARLSRTDSGLVPTAVEGFFRTAAGPGSDAGGLDGRPAQSCHSFTDPGAERPSGFTLYIPVRDYVRHDGEALARASTVLHHHGMDASVLHRALAALTERRPEDGVGLIAYLALAGQRDQPPRVTAYLSSEAYTVRPPVVETVRQPLSVG
notes: N-terminal His8 tag (pHIS8), expressed in E. coli BL21(DE3), Ni-NTA purified, 40 kDa, monomer
In the case of B2, in the series “purified protein [3]”, the Michaelis constant (Km) is 50 ± 2 µM and the kcat came out at 0.40 ± 0.1 s⁻¹. Moreover, in “purified protein [4]”, the Km worked out at 80 ± 6 µM and the turnover number (kcat) worked out at 0.40 ± 0.1 s⁻¹.

Usually Km stands for the concentration of substrate that gives half-maximal velocity. What is called kcat is the maximal rate divided by the concentration of active sites.
